Experimental data from patent publication US20230287598A1.
Where “and” joins values, the source holds several entries; their conditions need not be identical. Equal entries are not always repeated. Where two headings read alike, the source gives them in different places. Values belong to the substance of their own block, whether it stands above or below them.

What was measured:
[1] = biological target: CXCR1 (UniProt P25024); test: cell-based or functional assay
[2] = biological target: CXCR1 (UniProt P25024); test: cell-based or functional assay; remark: listed apart in the source
[3] = biological target: CXCR1 (UniProt P25024); test: flow cytometry, CXCR1-U2OS / parental U2OS; HC BLV1H12+CDR3-IL8
[4] = biological target: Kv1.3 (human) (UniProt P22001); test: cell-based or functional assay
[5] = biological target: CXCR1 (UniProt P25024); test: flow cytometry on CXCR1-U2OS cells, supernatant IgG (parental U2OS: 76)

Chain of Kv1.3 (human) (P22001 whole entry): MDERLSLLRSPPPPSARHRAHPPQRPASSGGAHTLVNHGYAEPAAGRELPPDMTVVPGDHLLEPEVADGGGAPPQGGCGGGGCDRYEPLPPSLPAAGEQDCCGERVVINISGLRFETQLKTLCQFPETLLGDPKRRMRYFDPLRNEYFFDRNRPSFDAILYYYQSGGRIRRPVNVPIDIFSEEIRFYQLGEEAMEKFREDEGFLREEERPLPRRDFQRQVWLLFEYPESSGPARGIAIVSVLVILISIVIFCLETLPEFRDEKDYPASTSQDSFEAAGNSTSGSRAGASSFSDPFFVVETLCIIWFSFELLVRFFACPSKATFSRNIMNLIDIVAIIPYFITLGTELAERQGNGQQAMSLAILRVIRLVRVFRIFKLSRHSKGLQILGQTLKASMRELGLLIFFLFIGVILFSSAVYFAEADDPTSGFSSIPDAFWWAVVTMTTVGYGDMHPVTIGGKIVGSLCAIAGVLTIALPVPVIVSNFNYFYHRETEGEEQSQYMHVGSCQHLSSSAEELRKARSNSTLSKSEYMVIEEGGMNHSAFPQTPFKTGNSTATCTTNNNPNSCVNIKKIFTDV
Chain of soluble IL-8 (P10145 28-99 limits assumed): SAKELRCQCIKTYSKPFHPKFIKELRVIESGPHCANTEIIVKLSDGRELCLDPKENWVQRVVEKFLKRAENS
Chain of IL-8 (P10145 28-99 limits assumed): as above
Chain of CXCR1 (P25024 whole entry): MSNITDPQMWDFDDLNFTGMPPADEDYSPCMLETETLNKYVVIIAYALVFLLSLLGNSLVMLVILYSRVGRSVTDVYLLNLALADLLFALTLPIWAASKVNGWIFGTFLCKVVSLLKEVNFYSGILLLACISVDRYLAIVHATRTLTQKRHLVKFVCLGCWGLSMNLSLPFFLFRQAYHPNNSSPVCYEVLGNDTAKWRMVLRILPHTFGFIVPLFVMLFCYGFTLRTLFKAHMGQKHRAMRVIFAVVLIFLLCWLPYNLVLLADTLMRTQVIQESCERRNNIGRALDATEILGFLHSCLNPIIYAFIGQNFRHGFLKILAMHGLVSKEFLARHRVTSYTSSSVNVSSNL

Substance: IL-8 (from UniProt P10145 28-99) (ligand)
CXCR1 activation, average RLU at 0.01 nM [1]: 440 RLU | CXCR1 activation, average RLU at 0.08 nM [1]: 504 RLU | CXCR1 activation, average RLU at 0.23 nM [1]: 940 RLU | CXCR1 activation, average RLU at 0.69 nM [1]: 1940 RLU | CXCR1 activation, average RLU at 2.06 nM [1]: 4110 RLU | CXCR1 activation, average RLU at 6.17 nM [1]: 5870 RLU | CXCR1 activation, average RLU at 18.52 nM [1]: 7300 RLU | CXCR1 activation, average RLU at 31.5 nM [1]: 55500 RLU | CXCR1 activation, average RLU at 55.56 nM [1]: 7360 RLU | CXCR1 activation, average RLU at 166.67 nM [1]: 6770 RLU | CXCR1 activation, average RLU at 500.00 nM [1]: 5720 RLU | CXCR1 activation, luminescence at 0.4 nM IL-8 domains [1]: 4930 | CXCR1 activation, luminescence at 1.6 nM IL-8 domains [1]: 8730 | CXCR1 activation, luminescence at 6.25 nM IL-8 domains [1]: 22300 | CXCR1 activation, luminescence at 25 nM IL-8 domains [1]: 42200 | CXCR1 activation, luminescence at 100 nM IL-8 domains [1]: 54000 | CXCR1 activation, luminescence at 0.4 nM IL-8 domains [2]: 6530 | CXCR1 activation, luminescence at 1.6 nM IL-8 domains [2]: 12200 | CXCR1 activation, luminescence at 6.25 nM IL-8 domains [2]: 28600 | CXCR1 activation, luminescence at 25 nM IL-8 domains [2]: 50500 | CXCR1 activation, luminescence at 100 nM IL-8 domains [2]: 70200

Substance: Negative Control IgG (antibody)
IL-2 ELISA (A450), Donor 1, 0.01 nM IgG [4]: 2 A450 and 2.15 A450 | IL-2 ELISA (A450), Donor 1, 0.75 nM IgG [4]: 2.11 A450 and 2.04 A450 | IL-2 ELISA (A450), Donor 1, 68 nM IgG [4]: 1.48 A450 and 1.55 A450 | IL-2 ELISA (A450), Donor 2, 0.01 nM IgG [4]: 1.61 A450 and 1.48 A450 | IL-2 ELISA (A450), Donor 2, 0.75 nM IgG [4]: 1.56 A450 and 1.52 A450 | IL-2 ELISA (A450), Donor 2, 68 nM IgG [4]: 1.5 A450 and 1.37 A450 | TNF-α ELISA (A450), Donor 1, 0.01 nM IgG [4]: 1.62 A450 and 1.66 A450 | TNF-α ELISA (A450), Donor 1, 0.75 nM IgG [4]: 1.69 A450 and 1.65 A450 | TNF-α ELISA (A450), Donor 1, 68 nM IgG [4]: 1.02 A450 and 1.13 A450 | TNF-α ELISA (A450), Donor 2, 0.01 nM IgG [4]: 2.07 A450 and 1.77 A450 | TNF-α ELISA (A450), Donor 2, 0.75 nM IgG [4]: 2.04 A450 and 1.85 A450 | TNF-α ELISA (A450), Donor 2, 68 nM IgG [4]: 1.88 A450 and 1.54 A450

Substance: BLV1H12-IL8 (antibody)
CXCR1 activation, luminescence, 0.1 nM IL-8 domains [1]: 4520 luminescence | CXCR1 activation, luminescence, 0.5 nM IL-8 domains [1]: 9940 luminescence | CXCR1 activation, luminescence, 2.2 nM IL-8 domains [1]: 17600 luminescence | CXCR1 activation, luminescence, 9.9 nM IL-8 domains [1]: 25300 luminescence | CXCR1 activation, luminescence, 44 nM IL-8 domains [1]: 32600 luminescence | CXCR1 activation, luminescence, 200 nM IL-8 domains [1]: 32200 luminescence

Substance: BLV1H12+CDR3-IL8 IgG (antibody)
CXCR1 activation, average RLU at 0.001 nM IgG [1]: 7440 RLU | CXCR1 activation, average RLU at 0.004 nM IgG [1]: 7240 RLU | CXCR1 activation, average RLU at 0.01 nM [1]: 435 RLU | CXCR1 activation, average RLU at 0.013 nM IgG [1]: 7330 RLU | CXCR1 activation, average RLU at 0.040 nM IgG [1]: 7740 RLU | CXCR1 activation, average RLU at 0.08 nM [1]: 822 RLU | CXCR1 activation, average RLU at 0.120 nM IgG [1]: 8870 RLU | CXCR1 activation, average RLU at 0.23 nM [1]: 1520 RLU | CXCR1 activation, average RLU at 0.359 nM IgG [1]: 13300 RLU | CXCR1 activation, average RLU at 0.69 nM [1]: 2650 RLU | CXCR1 activation, average RLU at 1.076 nM IgG [1]: 23700 RLU | CXCR1 activation, average RLU at 2.06 nM [1]: 3640 RLU | CXCR1 activation, average RLU at 3.228 nM IgG [1]: 34500 RLU | CXCR1 activation, average RLU at 6.17 nM [1]: 4430 RLU | CXCR1 activation, average RLU at 9.685 nM IgG [1]: 39300 RLU | CXCR1 activation, average RLU at 18.52 nM [1]: 5070 RLU | CXCR1 activation, average RLU at 29.056 nM IgG [1]: 47600 RLU | CXCR1 activation, average RLU at 55.56 nM [1]: 5510 RLU | CXCR1 activation, average RLU at 87.167 nM IgG [1]: 52100 RLU | CXCR1 activation, average RLU at 166.67 nM [1]: 6210 RLU | CXCR1 activation, average RLU at 261.500 nM IgG [1]: 56300 RLU | CXCR1 activation, average RLU at 500.00 nM [1]: 6640 RLU | Median Arbitrary Fluorescence Units (AFU) [5]: 707 AFU

Substance: IgG VH4-4 CDR3 BsaI (lacking the IL-8 insert) (antibody)
CXCR1 activation, average RLU at 0.001 nM IgG [1]: 7500 RLU | CXCR1 activation, average RLU at 0.004 nM IgG [1]: 7390 RLU | CXCR1 activation, average RLU at 0.013 nM IgG [1]: 7050 RLU | CXCR1 activation, average RLU at 0.040 nM IgG [1]: 6970 RLU | CXCR1 activation, average RLU at 0.120 nM IgG [1]: 7330 RLU | CXCR1 activation, average RLU at 0.359 nM IgG [1]: 6690 RLU | CXCR1 activation, average RLU at 1.076 nM IgG [1]: 7180 RLU | CXCR1 activation, average RLU at 3.228 nM IgG [1]: 7030 RLU | CXCR1 activation, average RLU at 9.685 nM IgG [1]: 7170 RLU | CXCR1 activation, average RLU at 29.056 nM IgG [1]: 7100 RLU | CXCR1 activation, average RLU at 87.167 nM IgG [1]: 7140 RLU | CXCR1 activation, average RLU at 261.500 nM IgG [1]: 7540 RLU

Second part, the substance after the results:

CXCR1 activation, luminescence, 0.1 nM IL-8 domains [1]: 4200 luminescence | CXCR1 activation, luminescence, 0.5 nM IL-8 domains [1]: 9790 luminescence | CXCR1 activation, luminescence, 2.2 nM IL-8 domains [1]: 25700 luminescence | CXCR1 activation, luminescence, 9.9 nM IL-8 domains [1]: 50300 luminescence | CXCR1 activation, luminescence, 44 nM IL-8 domains [1]: 54100 luminescence | CXCR1 activation, luminescence, 200 nM IL-8 domains [1]: 50400 luminescence
Substance: soluble IL-8 (from UniProt P10145 28-99) (ligand)

FACS CXCR1/Parental Ratio [3]: 5
Substance: BLV1H12+CDR3-IL8 / BLV1H12 light chain (SEQ ID NO: 412) IgG (antibody)
